Measurements from US12442042B2, “Epigenomic profiling reveals the somatic promoter landscape of primary gastric adenocarcinoma” (AGENCY FOR SCIENCE, TECHNOLOGY AND RESEARCH, priority 2016, dated 2025).

Experiments:
[1] = system: AGS cells; test: Transwell migration assay; format: cell-based; details: KRAS mutated AGS cells transfected with isoform, 24 h
Description: (§1) To determine cell migratory capacities, RASA3 wild type and variant transfected AGS and GES1, SNU1967 and AGS, and siRNA treated NCC24 cells were tested using Corning Costar 6.5 mm Transwell with 8.0 μm Pore Polycarbonate Membrane Inserts (3422, Corning, NY, USA). 2.5×10^4 AGS cells and 2×10^4 GES1 cells, 3×10^4 SNU1967 cells and 5×10^4 NCC24 cells were suspended in 0.1 ml serum-free RPMI medium and added to the top of the Transwell insert. 0.6 ml RPMI containing 10% FBS was added into the bottom well as a chemoattractant. After incubation for 24 h at 37° C. in a 5% CO2 incubator, cells were fixed with 3.7% formaldehyde and permeabilized with 100% methanol. Non-migrated cells were scraped off with cotton swabs from the upper surface of the membrane. Migrated cells were stained with 0.5% crystal violet. The number of migrated cells were represented as the total area of migrated cells vs the area of transwell membrane calculated using ImageJ software. For cell invasion assays, the above Transwell inserts were coated with 0.1 ml (300 μg/mL) Corning Matrigel matrix (354234, Corning, NY, USA) for 2 to 4 h at 37° C. before use. All subsequent steps were identical to the migration assay protocol.

[2] = system: GES1 cells; test: Transwell migration assay; format: cell-based; details: GES1 cells transfected with isoform, 24 h
Description: as §1

[3] = system: RAS; test: RAS-GTP assay (Active RAS pull-down) in GES1 cells; format: cell-based; details: vs empty vector or RASA3 SomT
Description: GES1 cells were transfected with either RASA3 CanT, RASA3 SomT or empty vector for 48 hours. Cells were harvested for protein in FBS containing media or subjected to over-night serum starvation followed by serum stimulation for 30 minutes prior to harvest. Proteins were extracted using ice-cold lysis buffer (Active RAS Pull-down and Detection Kit) containing protease inhibitor cocktail (Nacalai Tesque). Active RAS fraction was obtained using the Active RAS Pull-down and Detection Kit (Thermo Fisher Scientific) according to manufacturer's instructions. Total RAS was measured in corresponding whole cell protein lysates. β-actin was used as a loading control. Protein concentrations were determined using the Pierce BCA protein assay (Thermo Scientific). SDS sample buffer was added to the lysates and boiled at 100° C. for 5 minutes. Samples were loaded in each well of a 4-15% Mini-Protean TGX gel (Biorad) and transferred to a PVDF membrane using a semi-dry blotting system (Biorad). Membranes were probed with anti-RAS (1 in 200 dilution, supplied in Active RAS Pull-down and Detection Kit), or B-actin (1 in 5000 dilution, Sigma A5316) in 5% milk-PBST at 4° C. over-night. Secondary anti-mouse antibody (LNA931, Amersham) was used at a dilution of 1 in 2000 for 1 hour at room temperature. […]

[4] = system: SNU1967 cells; test: Matrigel invasion assay; format: cell-based; details: SNU1967 cells transfected with isoform
Description: as §1

[5] = system: GES1 cells; test: Matrigel invasion assay; format: cell-based; details: GES1 cells transfected with isoform
Description: as §1

[6] = system: HLA-A*02:06 T cells; test: IFN-γ assay: primed T cells co-cultured with AGS cells expressing RASA3 isoforms (ELISA); format: cell-based, human; details: T cells primed with the isoform, co-cultured with AGS cells expressing the same isoform, two days
Description: To test the immunogenicity of the RASA3 WT and Variant protein sequences, CD14+ monocytes were isolated from a HLA-A*02:06 donor by positive selection using magnetic beads (Miltenyi, Germany). Dendritic cells were generated by GM-CSF (1000 IU/ml) and IL-4 (400 IU/ml), and further matured by TNF (10 ng/ml), IL-1b (10 ng/ml), IL-6 (10 ng/ml) (Miltenyi, Germany) and PGE2 (1 μg/ml) (Stemcell Technologies, Canada) for 24 hours. The DCs were then primed with AGS cell lysates expressing WT RASA3 or Variant RASA3 for 24 hours, before being co-cultured with T cells from the same donor at the ratio of 1:5. After 5 days of co-culture with DC, T cells were isolated by positive selection using CD3 magnetic beads (Miltenyi, Germany) and co-cultured with AGS cells expressing either WT or Variant RASA3 at the ratio of 20:1 for two days. Supernatants were harvested and IFN-γ release was measured by ELISA (R&D, USA).

[7] = system: AGS cells; test: Cell proliferation assay (WST-8); format: cell-based; details: 24 to 120 hours post-transfection
Description: (§2) 3×10^3 GES1, SNU1967 and AGS cells were plated into 96-well plates in media with 10% fetal bovine serum and left overnight to attach. The next day (Day 0), cells were transiently transfected with wild-type and variant RASA3 constructs using Lipofectamine 3000 (Thermo Scientific). The amount of the constructs was 40 ng/well for AGS and 100 ng/well for GES1 and SNU1967 cells. Cell proliferation was measured by the WST-8 assay (Cell Counting Kit-8, Dojindo) from 24 to 120 hours post-transfection. 10 μL of WST-8 solution was added per well and the absorbance reading was measured at 450 nm after 2 hours of incubation in a humidified incubator.

[8] = system: SNU1967 cells; test: Cell proliferation assay (WST-8); format: cell-based; details: 24 to 120 hours post-transfection
Description: as §2

[9] = system: GES1 cells; test: Cell proliferation assay (WST-8); format: cell-based; details: 24 to 120 hours post-transfection
Description: as §2

B1: RASA3 CanT: canonical full-length RASA3 protein isoform, transfected construct (protein, UniProt Q14644 1-834, looked up)
chain: MAVEDEGLRVFQSVKIKIGEAKNLPSYPGPSKMRDCYCTVNLDQEEVFRTKIVEKSLCPFYGEDFYCEIPRSFRHLSFYIFDRDVFRRDSIIGKVAIQKEDLQKYHNRDTWFQLQHVDADSEVQGKVHLELRLSEVITDTGVVCHKLATRIVECQGLPIVNGQCDPYATVTLAGPFRSEAKKTKVKRKTNNPQFDEVFYFEVTRPCSYSKKSHFDFEEEDVDKLEIRVDLWNASNLKFGDEFLGELRIPLKVLRQSSSYEAWYFLQPRDNGSKSLKPDDLGSLRLNVVYTEDHVFSSDYYSPLRDLLLKSADVEPVSASAAHILGEVCREKQEAAVPLVRLFLHYGRVVPFISAIASAEVKRTQDPNTIFRGNSLASKCIDETMKLAGMHYLHVTLKPAIEEICQSHKPCEIDPVKLKDGENLENNMENLRQYVDRVFHAITESGVSCPTVMCDIFFSLREAAAKRFQDDPDVRYTAVSSFIFLRFFAPAILSPNLFQLTPHHTDPQTSRTLTLISKTVQTLGSLSKSKSASFKESYMATFYEFFNEQKYADAVKNFLDLISSSGRRDPKSVEQPIVLKEGFMIKRAQGRKRFGMKNFKKRWFRLTNHEFTYHKSKGDQPLYSIPIENILAVEKLEEESFKMKNMFQVIQPERALYIQANNCVEAKDWIDILTKVSQCNQKRLTVYHPSAYLSGHWLCCRAPSDSAPGCSPCTGGLPANIQLDIDGDRETERIYSLFNLYMSKLEKMQEACGSKSVYDGPEQEEYSTFVIDDPQETYKTLKQVIAGVGALEQEHAQYKRDKFKKTKYGSQEHPIGDKSFQNYIRQQSETSTHSI
modifications: full-length
notes: canonical full-length RASA3 protein isoform, transfected construct
[1]
  migration: potently suppressed
[1]; listed as RASA3 WT
  migration: more potent migration suppression
[2]
  migration: did not
[3]
  levels of active GTP-bound RAS: lower levels of active GTP-bound RAS
[4]
  invasion: significantly suppressed
[5]
  invasion: did not
[6]
  IFNγ release from primed T cells: significantly more
[7]
  cellular proliferation rate: did not alter
[8]
  cellular proliferation rate: did not alter
[9]
  cellular proliferation rate: did not alter
